Measurements from doi:10.1101/2020.10.14.340034.

Biological target: nsp16 (2'-O-methyltransferase);nsp10 (SARS-CoV-2;SARS-CoV-2, UniProt P0DTD1;P0DTD1 6799-7096;4254-4392, |)
Assay: competition

In the case of ACCCCC (ssRNA, 5' N7-methylguanosine cap (m7Gppp, cap-0); cap G not in strand) [Biotin-RNA N7-meGpppACCCCC-Biotin], the “apparent K (half saturation)” value is reported as 4.3 µM.
